Results published in article PMC3058911.

Assays:
[1] = biological target: CdiI536-T18 (bacterial two-hybrid fusion) (E. coli UPEC 536); test: two-hybrid
[2] = biological target: CdiI3937-2-T18 (bacterial two-hybrid fusion) (Dickeya dadantii 3937) (UniProt E0SDG7); test: two-hybrid
Sequence of UniProt E0SDG7 (E0SDG7 whole entry, the tested form may be a part): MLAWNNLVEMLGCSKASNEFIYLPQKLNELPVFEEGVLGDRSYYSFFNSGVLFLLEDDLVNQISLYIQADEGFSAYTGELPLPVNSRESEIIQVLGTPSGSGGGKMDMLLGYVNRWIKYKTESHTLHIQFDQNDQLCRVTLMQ

| Substance | β-galactosidase activity [1] [units] | β-galactosidase activity [2] [units] |
| --- | --- | --- |
| T25-CdiA-CT536 (bacterial two-hybrid fusion) (domain or fragment) | > 300 | – |
| T25-CdiA-CT3937-2 (bacterial two-hybrid fusion) (from UniProt E0SDG8 1-3326) (domain or fragment) | – | > 300 |
